Test [1] has as its target NS3-4A protease Q80K-A91T, single-chain proteolytic domain (NS4A21-32-GSGS-NS3 3-181) (hepatitis C virus).
The target of test [2] is NS3-4A protease Q80K-S174N, single-chain proteolytic domain (NS4A21-32-GSGS-NS3 3-181) (hepatitis C virus).
Test [3] addresses NS3-4A protease WT, single-chain proteolytic domain (NS4A21-32-GSGS-NS3 3-181) (hepatitis C virus).
In test [4] the target is NS3-4A protease Q80K-A91S, single-chain proteolytic domain (NS4A21-32-GSGS-NS3 3-181) (hepatitis C virus).
Test [5] addresses NS3-4A protease Q80K, single-chain proteolytic domain (NS4A21-32-GSGS-NS3 3-181) (hepatitis C virus).
Test [6] deals with NS3-4A protease Q80K-A91S-S174N, single-chain proteolytic domain (NS4A21-32-GSGS-NS3 3-181) (hepatitis C virus).
The target in test [7] is NS3-4A protease Q80K-A91T-S174N, single-chain proteolytic domain (NS4A21-32-GSGS-NS3 3-181) (hepatitis C virus).

This is an account of results in paper PMC8405986.

“viral polyprotein substrate derived from the NS4A/4B cleavage site (SensoLyte 520 HCV; Anaspec) (peptide)”: the KM (μM) of cleavage of the NS4A/4B FRET peptide substrate by purified protease (FRET-based protease assay) in test [1] worked out at 0.48 µM; in test [2], 0.14 µM; in test [3], 2.71 µM; in test [4], 0.56 µM; in test [5], 1.44 µM; in test [6] it was 8.16 µM. The KM (μM) of cleavage of the NS4A/4B FRET peptide substrate by purified protease (FRET-based protease assay) in test [7] was 0.67 µM.
